Laboratory results published in paper doi:10.1101/2020.06.11.146753, “Insights into glycan import by a prominent gut symbiont” (bioRxiv, 2020).

T1: Bt1763 (SusC) (Bacteroides thetaiotaomicron VPI-5482, UniProt Q8A6W3 26-1041)
T1 construct: Bt1763, SusC TonB-dependent transporter of the levan PUL, Bacteroides thetaiotaomicron VPI-5482; Untagged; isolated through the His6 tag on Bt1762; NTE invisible in the X-ray structures; plug domain absent from closed, empty transporters; also called SusC TonB-dependent transporter; source: B. thetaiotaomicron (Bt1762-his strain) grown on MM-fructose, outer membrane fraction in LDAO; purified …
T1 sequence (looked up): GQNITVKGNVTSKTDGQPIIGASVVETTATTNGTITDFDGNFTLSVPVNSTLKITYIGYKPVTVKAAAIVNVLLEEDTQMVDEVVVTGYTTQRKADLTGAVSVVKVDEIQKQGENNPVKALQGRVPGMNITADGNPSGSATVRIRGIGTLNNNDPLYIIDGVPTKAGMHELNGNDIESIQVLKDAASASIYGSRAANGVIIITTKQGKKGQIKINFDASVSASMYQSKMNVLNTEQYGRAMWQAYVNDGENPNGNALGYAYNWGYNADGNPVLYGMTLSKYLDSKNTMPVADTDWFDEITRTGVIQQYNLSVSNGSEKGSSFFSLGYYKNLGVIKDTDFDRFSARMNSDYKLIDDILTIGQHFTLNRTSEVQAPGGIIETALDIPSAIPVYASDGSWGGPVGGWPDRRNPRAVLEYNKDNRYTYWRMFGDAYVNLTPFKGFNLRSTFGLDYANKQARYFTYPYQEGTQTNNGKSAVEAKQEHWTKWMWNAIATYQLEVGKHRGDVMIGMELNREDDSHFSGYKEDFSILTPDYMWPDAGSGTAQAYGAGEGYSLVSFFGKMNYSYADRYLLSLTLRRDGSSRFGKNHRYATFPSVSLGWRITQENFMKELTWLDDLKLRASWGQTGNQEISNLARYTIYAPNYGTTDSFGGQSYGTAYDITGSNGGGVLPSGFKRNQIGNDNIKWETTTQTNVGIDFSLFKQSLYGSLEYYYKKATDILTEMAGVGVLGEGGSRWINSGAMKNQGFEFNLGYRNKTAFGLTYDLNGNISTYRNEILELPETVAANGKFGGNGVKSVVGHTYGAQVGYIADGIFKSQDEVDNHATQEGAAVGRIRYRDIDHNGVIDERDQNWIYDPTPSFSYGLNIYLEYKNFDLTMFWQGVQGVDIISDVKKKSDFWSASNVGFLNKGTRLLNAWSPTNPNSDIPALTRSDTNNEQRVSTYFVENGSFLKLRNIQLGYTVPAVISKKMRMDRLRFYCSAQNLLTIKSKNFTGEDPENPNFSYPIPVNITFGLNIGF


How the values were obtained:
[1] = biological target: T1, Bt1763 (SusC); experiment: crystal structure; Bt1762-63 purified from B. theta in 10 mM Hepes/100 mM NaCl/0.4% C8E4 pH 7.5; crystallised without ligand and after incubation with 2.5 mM β2,6 FOS; details: both partners purified
[2] = biological target: the molecule itself; experiment: native MS; purified Bt1762-63 in 0.5% C8E4, 0.2 M ammonium acetate, pH 6.9; ligand-free and with FOS fractions

Binder | binding result [1] | stoichiometry N [2]
Bt1762 (SusD), C-terminal His6 tag, from the B. theta Bt1762-his strain (natural protein, Bacteroides thetaiotaomicron VPI-5482, UniProt Q8A6W4 19-570, looked up, lipid anchor (lipoprotein), Chromosomally tagged, expressed natively; always isolated together with Bt1763; also called SusD lid; WT Bt1762; source: B. thetaiotaomicron (Bt1762-his strain) grown on MM-fructose, outer membrane fraction in LDAO; purified with Bt1763 (IMAC, SEC); not shown: His6, C-terminal, kept) CDDFLDRQVPQGIVTGDQIASPEYVDNLVISAYAIWATGDDINSSFSLWNYDVRSDDCYKGGSGTEDGGVFNALEISKGINTTDWNINDIWKRLYQCITRANTALQSLDQMDEKTYPLKNQRIAEMRFLRGHAHFMLKQLFKKIVIVNDENMEPDAYNELSNTTYTNDEQWQKIADDFQFAYDNLPEVQIEKGRPAQAAAAAYLAKTYLYKAYRQDGADNALTGINEEDLKQVVKYTDPLIMAKGGYGLETDYSMNFLPQYENGAESVWAIQYSINDGTYNGNLNWGMGLTTPQILGCCDFHKPSQNLVNAFKTDSQGKPLFSTYDNENYEVATDNVDPRLFHTVGMPGFPYKYNEGYIIQKNDDWSRSKGLYGYYVSLKENVDPDCDCLKKGSYWASSLNHIVIRYADVLLMRAEALIQLNDGRITDAISLINEVRSRAAGSTMLIFNYKEDYGVNFKVTPYDLKAYAQDEAMKMLKWERRVEFGMESSRFFDLVRWGEAKDVINAYYVTEASRCSIYKNAGFTENKNEYLPVPFEQISASNGNYTQNFGW | binds | 
Bt1762-63 SusCD complex (one Bt1762 and one Bt1763), the unit that pairs into SusC2D2 (complex, Bacteroides thetaiotaomicron VPI-5482, lipid anchor (lipoprotein), Bt1762 (SusD), Bacteroides thetaiotaomicron VPI-5482; as the chain of m1. numbers count on: the mature protein; Bt1763 (SusC), Bacteroides thetaiotaomicron VPI-5482; as the chain of m2. numbers count on: the mature protein; Used for the self-association of the SusCD unit into the SusC2D2 dimer; also called Bt1762-Bt1763; SusCD monomer; source: B. thetaiotaomicron (Bt1762-his strain) grown on …) chain 1: CDDFLDRQVPQGIVTGDQIASPEYVDNLVISAYAIWATGDDINSSFSLWNYDVRSDDCYKGGSGTEDGGVFNALEISKGINTTDWNINDIWKRLYQCITRANTALQSLDQMDEKTYPLKNQRIAEMRFLRGHAHFMLKQLFKKIVIVNDENMEPDAYNELSNTTYTNDEQWQKIADDFQFAYDNLPEVQIEKGRPAQAAAAAYLAKTYLYKAYRQDGADNALTGINEEDLKQVVKYTDPLIMAKGGYGLETDYSMNFLPQYENGAESVWAIQYSINDGTYNGNLNWGMGLTTPQILGCCDFHKPSQNLVNAFKTDSQGKPLFSTYDNENYEVATDNVDPRLFHTVGMPGFPYKYNEGYIIQKNDDWSRSKGLYGYYVSLKENVDPDCDCLKKGSYWASSLNHIVIRYADVLLMRAEALIQLNDGRITDAISLINEVRSRAAGSTMLIFNYKEDYGVNFKVTPYDLKAYAQDEAMKMLKWERRVEFGMESSRFFDLVRWGEAKDVINAYYVTEASRCSIYKNAGFTENKNEYLPVPFEQISASNGNYTQNFGW chain 2: GQNITVKGNVTSKTDGQPIIGASVVETTATTNGTITDFDGNFTLSVPVNSTLKITYIGYKPVTVKAAAIVNVLLEEDTQMVDEVVVTGYTTQRKADLTGAVSVVKVDEIQKQGENNPVKALQGRVPGMNITADGNPSGSATVRIRGIGTLNNNDPLYIIDGVPTKAGMHELNGNDIESIQVLKDAASASIYGSRAANGVIIITTKQGKKGQIKINFDASVSASMYQSKMNVLNTEQYGRAMWQAYVNDGENPNGNALGYAYNWGYNADGNPVLYGMTLSKYLDSKNTMPVADTDWFDEITRTGVIQQYNLSVSNGSEKGSSFFSLGYYKNLGVIKDTDFDRFSARMNSDYKLIDDILTIGQHFTLNRTSEVQAPGGIIETALDIPSAIPVYASDGSWGGPVGGWPDRRNPRAVLEYNKDNRYTYWRMFGDAYVNLTPFKGFNLRSTFGLDYANKQARYFTYPYQEGTQTNNGKSAVEAKQEHWTKWMWNAIATYQLEVGKHRGDVMIGMELNREDDSHFSGYKEDFSILTPDYMWPDAGSGTAQAYGAGEGYSLVSFFGKMNYSYADRYLLSLTLRRDGSSRFGKNHRYATFPSVSLGWRITQENFMKELTWLDDLKLRASWGQTGNQEISNLARYTIYAPNYGTTDSFGGQSYGTAYDITGSNGGGVLPSGFKRNQIGNDNIKWETTTQTNVGIDFSLFKQSLYGSLEYYYKKATDILTEMAGVGVLGEGGSRWINSGAMKNQGFEFNLGYRNKTAFGLTYDLNGNISTYRNEILELPETVAANGKFGGNGVKSVVGHTYGAQVGYIADGIFKSQDEVDNHATQEGAAVGRIRYRDIDHNGVIDERDQNWIYDPTPSFSYGLNIYLEYKNFDLTMFWQGVQGVDIISDVKKKSDFWSASNVGFLNKGTRLLNAWSPTNPNSDIPALTRSDTNNEQRVSTYFVENGSFLKLRNIQLGYTVPAVISKKMRMDRLRFYCSAQNLLTIKSKNFTGEDPENPNFSYPIPVNITFGLNIGF |  | 2
